Laboratory results taken from US20080305041A1, “Pf4 Pharmacophores and Their Uses” (BIOQUANTA CORP., priority 2004, published 2008).
Substitutions are numbered along the chain they refer to. Numbers in names are those of the source. Blank lines part the entries; values can stand above or below the molecule they belong to.

How the values were obtained:
[1] = test system: PF4 receptor; assay: PF4 receptor binding / competition of PF4-derived peptides
[2] = test system: PF4 receptor; assay: PF4 receptor activation by PF4-derived peptides
[3] = test system: HUVEC; assay: Angiogenic activity of mutant PF4 polypeptides in HUVEC cells; assay type: cell-based, Human; details: for antiangiogenic properties/activity of PF4 (effect of the mutation): Table 4 column Function
Procedure: (§1) Inhibition of DNA synthesis was measured by [^3H]-thymidine incorporation assay. Cells were plated at 15,000 cells per well in a 24 well-plate in 0.5 ml medium containing 2.5% FCS and allowed to attach for 4 hours at 37° C. Proliferation was then induced by addition of 10 ng/ml of FGF-2, VEGF165 or VEGF121. Increasing concentrations of purified recombinant PF4 proteins were added to some wells and HUVEC were further incubated for 48 hours. [^3H]-thymidine (1 μCi/well) was added during the last 20 hours of incubation. Cells were washed twice with PBS and treated with ice-cold 10% (w/v) trichloroacetic acid for 30 minutes. The resulting precipitates were solubilized with 1 M NaOH and incorporated radioactivity was measured in a Beckman LS-6500 multi-purpose scintillation counter.
HUVEC migration was evaluated in a modified Boyden chamber assay. Transwell cell culture chamber inserts with porous polycarbonate filters ([…]) were coated with 0.2% gelatin. HUVEC suspended in medium supplemented with 2.5% FCS were added to the inserts at 4×10^4 cells per well. The inserts were placed over chambers containing a chemotactic stimulus (10 ng/ml VEGF165), and cells were allowed to migrate for 4 hours at 37° C. in a CO2 incubator. For inhibition experiments, recombinant PF4 proteins were added to both the lower and upper chambers. After incubation, filters were rinsed with PBS, fixed with 1% paraformaldehyde and stained with hematoxyline of Harris (EMD Chemicals Inc. Gibbstown, N.J.).
(§2) The upper surfaces of the filters was scraped with a cotton swab to remove the nonmigrant cells. The […] in a optical microscope at high powered (×200) magnification, and the number of cells within the microscope visualization field was recorded. Each experimental point was performed in triplicate, and 20 visual fields were analyzed per filter.
Next, the PF4 surface was mapped using site-directed mutagenesis. In particular, a series of mutant PF4 polypeptides was generated, and their angiogenic activity in HUVEC cells was investigated using assays such as those described in Section 6.1, above. Table 3 below lists amino acid sequences of the PF4 polypeptides generated, along with each polypeptide designation and sequence identification number (SEQ ID NO.). The first sequence, which is designated WTPF4, corresponds to the wild-type, mature PF4 amino acid sequence that is also depicted in FIG. 1C (SEQ ID NO:1). The other sequences depicted in Table 3 comprise one or more amino acid substitutions, indicated by bold-faced, underlined type in the amino acid sequence.

[4] = test system: HUVEC; assay: Endothelial cell proliferation assay ([3H]-thymidine incorporation); assay type: cell-based, Human; details: stimulus not given
Procedure: (§3) Human umbilical vein endothelial cells (HUVEC) were isolated by collagenase (Roche Diagnostics) digestion as described previously (Jaffe et al., J Clin Invest. 1973; 85(11):2745-56).
(§4) Cells were grown in M199 medium containing 15% fetal calf serum (FCS), 5% human serum, 2 mM glutamine, 50 U/ml penicillin, 50 μg/ml streptomycin, 2.5 μg/ml amphotericin B, and 15 mM HEPES. Cultures were maintained at 37° C. amd 5% CO2 in humidified atmosphere. Every 3-4 days, the cultures were harvested by trypsin treatment, diluted, replated and grown to confluence. HUVEC grown until confluence from the second or third passage are preferably used for experiments described here.
as §1, with “Cells were washed twice with PBS and treated with ice-cold 10% (w/v) trichloroacetic acid for 30 minutes.” left out

[5] = test system: HUVEC; assay: HUVEC migration assay (modified Boyden chamber); assay type: cell-based, Human
Procedure: as §3, §4
HUVEC migration was evaluated in a modified Boyden chamber assay. Transwell cell culture chamber inserts with porous polycarbonate filters ([…]) were coated with 0.2% gelatin. HUVEC suspended in medium supplemented with 2.5% FCS were added to the inserts at 4×10^4 cells per well. […]
as §2

binding to PF4 receptor [1]: does not bind to
activation of PF4 receptor [2]: does not bind to or activate
Molecule: P35-53: peptide PSPTAQLIATLKNGRKISL (SEQ ID NO:160), P34-53 with His2 removed [Mutant P35-53]

activation of PF4 receptor [2]: does not activate
Molecule: P37-56: peptide PTAQLIATLKNGRKISLDLQ (SEQ ID NO:158), P34-56 without capping box [Mutant P37-56]

binding to PF4 receptor [1]: bind to
activation of PF4 receptor [2]: activate
Molecule: P34-56: peptide PHSPTAQLIATLKNGRKISLDLQ (SEQ ID NO:157), derived from residues 34-56 of mature PF4 [Mutant P34-56]

competition against P34-56 for target binding ([1]; competitor P34-56): effectively competes
competition with PF4 for binding to the PF4 receptor ([1]; competitor PF4): effectively competes
activation of PF4 receptor [2]: does not activate
Molecule: P34-53: peptide PHSPTAQLIATLKNGRKISL (SEQ ID NO:159), derived from residues 34-53 of mature PF4 [Mutant P34-53]

B1: PF4-M10H: mutant PF4 polypeptide SEQ ID NO:19; single mutant T47A, without HBD (protein, listed as Homo sapiens)
chain: EAEEDGDLQCLCVKTASQVRPRHITSLEVIKAGPHCPTAQLIATLKNGRKICLDLQAPLYQEIIQELLES
antiangiogenic properties/activity of PF4 (effect of the mutation) [3]: Mutation does not suppress

B2: PF4-M2: mutant PF4 polypeptide SEQ ID NO:3; tests importance of Cys residues (protein, listed as Homo sapiens)
chain: B1 chain with C10S, A16T, C36S, Q61K, E62K, Q65K, E66K
antiangiogenic properties/activity of PF4 (effect of the mutation) [3]: Complete loss of activity due

B3: PF4-M2H: mutant PF4 polypeptide SEQ ID NO:4; tests importance of Cys residues (protein, listed as Homo sapiens)
chain: B1 chain with C10S, A16T, C36S
antiangiogenic properties/activity of PF4 (effect of the mutation) [3]: Complete loss of activity due

B4: PF4-M5: mutant PF4 polypeptide SEQ ID NO:9; triple mutant L42S, V44Q, T47A carrying HBD (protein, listed as Homo sapiens)
chain: B1 chain with L11S, V13Q, Q61K, E62K, Q65K, E66K
antiangiogenic properties/activity of PF4 (effect of the mutation) [3]: Mutation decreases the

B5: PF4-M6: mutant PF4 polypeptide SEQ ID NO:11; triple mutant Q49A, V50S, H54A carrying HBD (protein, listed as Homo sapiens)
chain: B1 chain with A16T, Q18A, V19S, H23A, Q61K, E62K, Q65K, E66K
antiangiogenic properties/activity of PF4 (effect of the mutation) [3]: Mutation decreases the

B6: PF4-M3: mutant PF4 polypeptide SEQ ID NO:5; DLQ motif replaced by IL8-like motif, carrying HBD (protein, listed as Homo sapiens)
chain: B1 chain with Q9R, A16T, Q61K, E62K, Q65K, E66K
effect on HUVEC compared with WTPF4 [3]: sulfate. It has the same effect

B7: PF4-M3H: mutant PF4 polypeptide SEQ ID NO:6; PF4-M3 mutant without HBD (protein, listed as Homo sapiens)
chain: B1 chain with Q9R, A16T
inhibition of the proliferation of HUVEC cells [4]: This mutant cannot inhibit
inhibition of cell migration (HUVEC) [5]: This mutant cannot inhibit
antiangiogenic properties/activity of PF4 (effect of the mutation) [3]: cancels the antiangiogenic

B8: PF4-M13H: mutant PF4 polypeptide SEQ ID NO:25; single mutant V50S, without HBD (protein, listed as Homo sapiens)
chain: B1 chain with A16T, V19S
antiangiogenic properties/activity of PF4 (effect of the mutation) [3]: Mutation does not suppress

B9: PF4-M5H: mutant PF4 polypeptide SEQ ID NO:10; triple mutant L42S, V44Q, T47A, without HBD (protein, listed as Homo sapiens)
chain: B1 chain with L11S, V13Q
antiangiogenic properties/activity of PF4 (effect of the mutation) [3]: Decreases the antiangiogenic

B10: PF4-M1: mutant PF4 polypeptide SEQ ID NO:2; heparan sulfate binding domain (HBD) absent (protein, listed as Homo sapiens)
chain: B1 chain with A16T
inhibition of cell migration (HUVEC) [5]: PF4-M1 also inhibits cell
antiangiogenic properties/activity of PF4 (effect of the mutation) [3]: PF4-M1 is antiangiogenic
